Laboratory results published in US8440430, “Modified dicer polypeptide and methods of use thereof” (The Regents of the University of California).
Values belong to the binder of their own block, whether it stands above or below them.

What was measured:
[1] = target: T1, ΔDEAD human Dicer (deletion of amino acids 1-604 spanning the entire DExD/H-box domain) (human, UniProt Q9UPY3 605-1922); experiment: size exclusion chromatography with SDS-PAGE of fractions after 60 min pre-incubation on ice
T1 construct: The DEAD-F primer adds an initiator Met; also called ΔDEAD hDcr; DExD/H-box deletion protein
T1 sequence: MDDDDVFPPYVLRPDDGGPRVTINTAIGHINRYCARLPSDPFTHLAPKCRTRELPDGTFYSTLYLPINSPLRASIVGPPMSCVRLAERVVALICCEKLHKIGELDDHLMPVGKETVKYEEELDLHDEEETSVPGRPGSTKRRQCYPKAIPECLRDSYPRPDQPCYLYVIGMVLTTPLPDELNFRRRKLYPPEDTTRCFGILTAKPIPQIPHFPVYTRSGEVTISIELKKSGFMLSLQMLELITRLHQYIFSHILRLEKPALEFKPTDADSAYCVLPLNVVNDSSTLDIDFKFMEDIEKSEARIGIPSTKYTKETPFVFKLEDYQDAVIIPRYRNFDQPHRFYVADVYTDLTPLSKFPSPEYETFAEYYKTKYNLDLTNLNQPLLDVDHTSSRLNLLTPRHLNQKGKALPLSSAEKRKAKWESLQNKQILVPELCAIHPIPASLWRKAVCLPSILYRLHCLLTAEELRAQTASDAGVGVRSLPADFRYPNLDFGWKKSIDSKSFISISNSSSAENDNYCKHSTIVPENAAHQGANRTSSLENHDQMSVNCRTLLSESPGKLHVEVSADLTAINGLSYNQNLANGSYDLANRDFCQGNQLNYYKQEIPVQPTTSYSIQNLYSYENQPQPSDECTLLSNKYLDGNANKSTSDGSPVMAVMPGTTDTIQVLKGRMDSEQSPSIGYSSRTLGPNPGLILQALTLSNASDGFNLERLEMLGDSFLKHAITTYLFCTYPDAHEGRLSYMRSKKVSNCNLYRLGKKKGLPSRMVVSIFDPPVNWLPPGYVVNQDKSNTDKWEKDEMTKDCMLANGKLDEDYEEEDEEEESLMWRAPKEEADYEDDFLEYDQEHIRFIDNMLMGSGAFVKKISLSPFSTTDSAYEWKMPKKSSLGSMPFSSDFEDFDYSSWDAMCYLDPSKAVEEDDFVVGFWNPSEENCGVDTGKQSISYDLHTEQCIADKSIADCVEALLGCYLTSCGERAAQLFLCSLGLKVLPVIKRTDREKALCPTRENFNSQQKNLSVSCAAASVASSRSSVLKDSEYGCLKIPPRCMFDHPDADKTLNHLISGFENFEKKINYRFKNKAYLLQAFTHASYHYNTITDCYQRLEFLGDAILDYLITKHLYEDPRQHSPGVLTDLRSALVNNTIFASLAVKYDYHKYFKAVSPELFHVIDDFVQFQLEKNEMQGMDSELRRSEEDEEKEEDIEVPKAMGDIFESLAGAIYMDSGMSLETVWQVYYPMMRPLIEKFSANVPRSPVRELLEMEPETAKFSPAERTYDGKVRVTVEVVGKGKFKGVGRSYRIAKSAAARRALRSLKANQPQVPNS
Method: FIGS. 6A and 6B. Interaction of human Dicer with TRBP mediated by DEAD domain A, TRBP interacts with hDcr through DEAD domain. Prior to size exclusion chromatography, 2.5 nmol of each human Dicer protein and 9.0 nmol of TRBP were pre-incubated on ice for 60 minutes. Left panel, a chromatogram (top) of wild-type human Dicer (flhDcr) with TRBP and SDS-PAGE gel analysis of fractions (bottom); Right panel, a chromatogram (top) of ΔDEAD human Dicer (ΔDEAD) with TRBP and SDS-PAGE gel analysis of fractions (bottom). B, Binding of TRBP to hDcr increased its dicing activity. A multiple-turnover assay for 37ab cleavage using 100 nM dsRNA and 5 nM hDcr or hDcr-TRBP.

TRBP, Q15633 = target: T2, TRBP, Q15633
T2 chain: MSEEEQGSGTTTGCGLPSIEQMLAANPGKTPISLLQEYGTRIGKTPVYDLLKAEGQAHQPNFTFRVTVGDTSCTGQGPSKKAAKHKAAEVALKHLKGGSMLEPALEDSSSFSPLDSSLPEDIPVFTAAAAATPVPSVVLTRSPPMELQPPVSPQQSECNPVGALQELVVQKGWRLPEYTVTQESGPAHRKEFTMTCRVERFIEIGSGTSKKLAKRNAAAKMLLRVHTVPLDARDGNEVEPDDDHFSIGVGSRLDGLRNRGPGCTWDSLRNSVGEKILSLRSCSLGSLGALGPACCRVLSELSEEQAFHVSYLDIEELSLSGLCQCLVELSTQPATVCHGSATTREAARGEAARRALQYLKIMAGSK

- binding result [1]: no binding
B1: TRBP (other, human, UniProt Q15633 1-366, looked up)
chain: T2 chain
notes: also called human partner protein TRBP

B2: full-length wild-type human Dicer (hDcr), accession no. NP-803187 (protein)
chain: MKSPALQPLSMAGLQLMTPASSPMGPFFGLPWQQEAIHDNIYTPRKYQVELLEAALDHNTIVCLNTGSGKTFIAVLLTKELSYQIRGDFSRNGKRTVFLVNSANQVAQQVSAVRTHSDLKVGEYSNLEVNASWTKERWNQEFTKHQVLIMTCYVALNVLKNGYLSLSDINLLVFDECHLAILDHPYREIMKLCENCPSCPRILGLTASILNGKCDPEELEEKIQKLEKILKSNAETATDLVVLDRYTSQPCEIVVDCGPFTDRSGLYERLLMELEEALNFINDCNISVHSKERDSTLISKQILSDCRAVLVVLGPWCADKVAGMMVRELQKYIKHEQEELHRKFLLFTDTFLRKIHALCEEHFSPASLDLKFVTPKVIKLLEILRKYKPYERQQFESVEWYNNRNQDNYVSWSDSEDDDEDEEIEEKEKPETNFPSPFTNILCGIIFVERRYTAVVLNRLIKEAGKQDPELAYISSNFITGHGIGKNQPRNKQMEAEFRKQEEVLRKFRAHETNLLIATSIVEEGVDIPKCNLVVRFDLPTEYRSYVQSKGRARAPISNYIMLADTDKIKSFEEDLKTYKAIEKILRNKCSKSVDTGETDIDPVMDDDDVFPPYVLRPDDGGPRVTINTAIGHINRYCARLPSDPFTHLAPKCRTRELPDGTFYSTLYLPINSPLRASIVGPPMSCVRLAERVVALICCEKLHKIGELDDHLMPVGKETVKYEEELDLHDEEETSVPGRPGSTKRRQCYPKAIPECLRDSYPRPDQPCYLYVIGMVLTTPLPDELNFRRRKLYPPEDTTRCFGILTAKPIPQIPHFPVYTRSGEVTISIELKKSGFMLSLQMLELITRLHQYIFSHILRLEKPALEFKPTDADSAYCVLPLNVVNDSSTLDIDFKFMEDIEKSEARIGIPSTKYTKETPFVFKLEDYQDAVIIPRYRNFDQPHRFYVADVYTDLTPLSKFPSPEYETFAEYYKTKYNLDLTNLNQPLLDVDHTSSRLNLLTPRHLNQKGKALPLSSAEKRKAKWESLQNKQILVPELCAIHPIPASLWRKAVCLPSILYRLHCLLTAEELRAQTASDAGVGVRSLPADFRYPNLDFGWKKSIDSKSFISISNSSSAENDNYCKHSTIVPENAAHQGANRTSSLENHDQMSVNCRTLLSESPGKLHVEVSADLTAINGLSYNQNLANGSYDLANRDFCQGNQLNYYKQEIPVQPTTSYSIQNLYSYENQPQPSDECTLLSNKYLDGNANKSTSDGSPVMAVMPGTTDTIQVLKGRMDSEQSPSIGYSSRTLGPNPGLILQALTLSNASDGFNLERLEMLGDSFLKHAITTYLFCTYPDAHEGRLSYMRSKKVSNCNLYRLGKKKGLPSRMVVSIFDPPVNWLPPGYVVNQDKSNTDKWEKDEMTKDCMLANGKLDEDYEEEDEEEESLMWRAPKEEADYEDDFLEYDQEHIRFIDNMLMGSGAFVKKISLSPFSTTDSAYEWKMPKKSSLGSMPFSSDFEDFDYSSWDAMCYLDPSKAVEEDDFVVGFWNPSEENCGVDTGKQSISYDLHTEQCIADKSIADCVEALLGCYLTSCGERAAQLFLCSLGLKVLPVIKRTDREKALCPTRENFNSQQKNLSVSCAAASVASSRSSVLKDSEYGCLKIPPRCMFDHPDADKTLNHLISGFENFEKKINYRFKNKAYLLQAFTHASYHYNTITDCYQRLEFLGDAILDYLITKHLYEDPRQHSPGVLTDLRSALVNNTIFASLAVKYDYHKYFKAVSPELFHVIDDFVQFQLEKNEMQGMDSELRRSEEDEEKEEDIEVPKAMGDIFESLAGAIYMDSGMSLETVWQVYYPMMRPLIEKFSANVPRSPVRELLEMEPETAKFSPAERTYDGKVRVTVEVVGKGKFKGVGRSYRIAKSAAARRALRSLKANQPQVPNS
- cleavage rate in a multiple-turnover assay for 37ab cleavage (100 nM dsRNA, 5 nM hDcr or hDcr-TRBP) (TRBP, Q15633): increased the cleavage rate of the resulting protein complex
